# Results from publication PMC7498356.
# T1: TDRD5 LOTUS domain 1 (L1) (Mus musculus, UniProt Q5VCS6 7-80)
# T1 sequence: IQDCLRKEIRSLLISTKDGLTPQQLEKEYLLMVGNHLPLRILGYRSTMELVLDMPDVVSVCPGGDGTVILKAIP
# T2: TDRD5 LOTUS domain 3 (L3) (Mus musculus, UniProt Q5VCS6 291-365)
# T2 sequence: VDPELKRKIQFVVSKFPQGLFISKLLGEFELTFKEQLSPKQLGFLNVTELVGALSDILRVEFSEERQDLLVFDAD
# T3: TDRD5 LOTUS domain 2 (L2) (Mus musculus, UniProt Q5VCS6 122-197)
# T3 sequence: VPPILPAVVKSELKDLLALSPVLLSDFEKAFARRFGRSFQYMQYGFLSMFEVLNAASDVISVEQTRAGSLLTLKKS
# T4: TDRD7 L3 (Mus musculus, UniProt Q8K1H1 325-394)
# T4 sequence: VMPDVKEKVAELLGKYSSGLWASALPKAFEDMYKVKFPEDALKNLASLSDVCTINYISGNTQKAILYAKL
# T5: TDRD7 L2 (Mus musculus, UniProt Q8K1H1 222-291)
# T5 sequence: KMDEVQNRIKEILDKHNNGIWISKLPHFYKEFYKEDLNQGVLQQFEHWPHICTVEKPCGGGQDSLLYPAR
# T6: TDRD7 L1 (Mus musculus, UniProt Q8K1H1 3-76)
# T6 sequence: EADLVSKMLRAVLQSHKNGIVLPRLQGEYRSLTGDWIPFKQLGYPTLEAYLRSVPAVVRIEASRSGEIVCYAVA
# T7: Oskar LOTUS (eLOTUS) (Drosophila, UniProt P25158 139-241)
# T7 sequence: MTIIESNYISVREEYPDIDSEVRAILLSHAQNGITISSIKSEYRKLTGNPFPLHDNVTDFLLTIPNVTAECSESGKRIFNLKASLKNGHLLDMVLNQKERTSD
# T8: human MARF1 L7 (Homo sapiens, UniProt Q9Y4F3 1411-1485)
# T8 sequence: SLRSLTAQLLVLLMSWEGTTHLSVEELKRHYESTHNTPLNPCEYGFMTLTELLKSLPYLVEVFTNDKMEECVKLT
# T9: TP0894-LOTUS (Treponema pallidum subsp. pallidum str. …, UniProt O83864 178-253)
# T9 sequence: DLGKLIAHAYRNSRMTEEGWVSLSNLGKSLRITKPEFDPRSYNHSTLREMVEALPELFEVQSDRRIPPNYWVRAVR
# T10: human TDRD5 L1 (Homo sapiens, UniProt Q8NAT2 7-80)
# T10 sequence: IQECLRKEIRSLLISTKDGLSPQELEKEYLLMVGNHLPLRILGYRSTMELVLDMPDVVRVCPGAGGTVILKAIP
# T11: AT3G52980-LOTUS (plant, UniProt Q9LF94 199-282)
# T11 sequence: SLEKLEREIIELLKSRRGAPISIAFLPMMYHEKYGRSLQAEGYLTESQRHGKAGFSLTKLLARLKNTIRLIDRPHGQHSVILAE
# T12: Tejas LOTUS (Drosophila, UniProt A1Z9P1 6-79)
# T12 sequence: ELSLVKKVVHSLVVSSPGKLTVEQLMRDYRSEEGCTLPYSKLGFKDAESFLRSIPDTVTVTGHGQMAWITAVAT
# T13: human MARF1 L1 (Homo sapiens, UniProt Q9Y4F3 875-949)
# T13 sequence: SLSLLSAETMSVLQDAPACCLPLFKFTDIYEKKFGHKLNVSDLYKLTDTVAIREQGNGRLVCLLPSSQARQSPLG
# Assays:
# [1] = biological target: T1, TDRD5 LOTUS domain 1 (L1); test: pull-down, ELISA
# [2] = biological target: T2, TDRD5 LOTUS domain 3 (L3); test: pull-down, ELISA
# [3] = biological target: T3, TDRD5 LOTUS domain 2 (L2); test: pull-down, ELISA
# [4] = biological target: T1, TDRD5 LOTUS domain 1 (L1); test: ELISA
# [5] = biological target: T2, TDRD5 LOTUS domain 3 (L3); test: ELISA
# [6] = biological target: T1, TDRD5 LOTUS domain 1 (L1); test: DRaCALA
# TDRD7 L3 = biological target: T4, TDRD7 L3; test: ELISA
# TDRD7 L2 = biological target: T5, TDRD7 L2; test: ELISA
# TDRD7 L1 = biological target: T6, TDRD7 L1; test: ELISA
# Oskar LOTUS (eLOTUS) = biological target: T7, Oskar LOTUS (eLOTUS); test: ELISA
# human MARF1 L7 = biological target: T8, human MARF1 L7; test: ELISA
# TP0894-LOTUS = biological target: T9, TP0894-LOTUS; test: ELISA
# human TDRD7 L1 = human TDRD7 L1 (Homo sapiens, UniProt Q8NHU6 3-76); test: ELISA
# Sequence of human TDRD7 L1 (Q8NHU6 3-76): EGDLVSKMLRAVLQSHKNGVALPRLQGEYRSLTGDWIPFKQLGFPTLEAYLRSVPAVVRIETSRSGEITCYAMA
# human TDRD5 L1 = biological target: T10, human TDRD5 L1; test: ELISA
# AT3G52980-LOTUS = biological target: T11, AT3G52980-LOTUS; test: ELISA
# Tejas LOTUS = biological target: T12, Tejas LOTUS; test: ELISA
# human MARF1 L1 = biological target: T13, human MARF1 L1; test: ELISA
binder,measurement,setting,value
CCCCCCCCCCCCCCCCCCC (ssRNA) [Poly(C)],binding result,[1],no binding
same,binding result,[2],no binding
same,binding result,[3],no binding
TTAGGGTTAGGGTTAGGGTTAGGG (structured_DNA) [TERRA G4 DNA],binding result,[4],no binding
GGGGGGGGGGGGGGGGGGG (ssRNA) [Poly(G)],binding result,[5],no binding
GGUGGGCAGGGGAGUGGGGGUGGG (structured_RNA) [Cluster G4-1 RNA],binding result,[6],binds
same,binding result,[2],no binding
same,binding result,TDRD7 L3,binds
same,binding result,TDRD7 L2,binds
same,binding result,TDRD7 L1,binds
same,binding result,Oskar LOTUS (eLOTUS),binds
same,binding result,human MARF1 L7,binds
same,binding result,TP0894-LOTUS,binds
same,binding result,human TDRD7 L1,binds
same,binding result,human TDRD5 L1,binds
same,binding result,AT3G52980-LOTUS,binds
same,binding result,Tejas LOTUS,binds
same,binding result,human MARF1 L1,binds
